Data reported in US11459364B2, “Calbindin and BH3 domain chimeric proteins and methods for use” (ProDa Biotech LLC, priority 2014, dated 2022).

System: SW620 cells
Test: Cell viability of SW620 cells by cell counting after treatment with folate-conjugated chimeric proteins
Format: cell-based
Settings: 5 μM, Calbindin D9k host, folate by disulfide bond via 5 kDa PEG, 48 hours
Procedure: (§1) FIG. 3 illustrates the effects of chimeric proteins having different host peptides and the BH3 domain of Bid on the apoptosis of SW620 cells. […] The SW620 cells were treated with 5 μM of the indicated proteins. The proteins were conjugated to folate by a disulfide bond via a 5 kDa PEG. Cell viability was measured by cell counting 48 hours after treatment with the indicated proteins. Buffer treated cells were used as a reference (100% cell viability). The error bars indicate standard deviations across five repeating experiments.
as §1, with “FIG. 4” for “FIG. 3”, “having a Calbindin D9k host peptide and” for “having”, “different” for “different host peptides and the”, “BH3 domains” for “BH3 domain of Bid”, “(100%” for “(100% cell”
FIG. 7 illustrates the effects of a chimeric protein with a Calbindin D9k host protein, a Bid or Bim BH3 domain, and a conjugated folate on SW620 cells. […] Cell viability was measured by counting cells 48 hours after treatment with the indicated proteins. […]

B1: D-Nox: chimeric protein, Calbindin D9k host with BH3 domain of Noxia, Sequence Id No. 8; tested conjugated to folate (protein)
chain: HMSTKKSPEELKRIFEKYAAKEGDPDQLSKDELKLLIQAEFPCLLKGPNTLDDLFQELDKNPAELEVEMATQLRRFGDKLNFRQKLL
modifications: folate conjugate; Chimeric Variant of human protein and a variant of a BH3 domain
notes: tested conjugated to folate
induction of apoptosis (cell viability), comparison of BH3 domains: most effective in inducing apoptosis
